Reference: paper PMC2148137 (The Journal of Cell Biology, 1998)

Molecular target: T1, GST–Kic1p full-length fusion (S. cerevisiae, UniProt P38692 1-1080)
T1 sequence (looked up): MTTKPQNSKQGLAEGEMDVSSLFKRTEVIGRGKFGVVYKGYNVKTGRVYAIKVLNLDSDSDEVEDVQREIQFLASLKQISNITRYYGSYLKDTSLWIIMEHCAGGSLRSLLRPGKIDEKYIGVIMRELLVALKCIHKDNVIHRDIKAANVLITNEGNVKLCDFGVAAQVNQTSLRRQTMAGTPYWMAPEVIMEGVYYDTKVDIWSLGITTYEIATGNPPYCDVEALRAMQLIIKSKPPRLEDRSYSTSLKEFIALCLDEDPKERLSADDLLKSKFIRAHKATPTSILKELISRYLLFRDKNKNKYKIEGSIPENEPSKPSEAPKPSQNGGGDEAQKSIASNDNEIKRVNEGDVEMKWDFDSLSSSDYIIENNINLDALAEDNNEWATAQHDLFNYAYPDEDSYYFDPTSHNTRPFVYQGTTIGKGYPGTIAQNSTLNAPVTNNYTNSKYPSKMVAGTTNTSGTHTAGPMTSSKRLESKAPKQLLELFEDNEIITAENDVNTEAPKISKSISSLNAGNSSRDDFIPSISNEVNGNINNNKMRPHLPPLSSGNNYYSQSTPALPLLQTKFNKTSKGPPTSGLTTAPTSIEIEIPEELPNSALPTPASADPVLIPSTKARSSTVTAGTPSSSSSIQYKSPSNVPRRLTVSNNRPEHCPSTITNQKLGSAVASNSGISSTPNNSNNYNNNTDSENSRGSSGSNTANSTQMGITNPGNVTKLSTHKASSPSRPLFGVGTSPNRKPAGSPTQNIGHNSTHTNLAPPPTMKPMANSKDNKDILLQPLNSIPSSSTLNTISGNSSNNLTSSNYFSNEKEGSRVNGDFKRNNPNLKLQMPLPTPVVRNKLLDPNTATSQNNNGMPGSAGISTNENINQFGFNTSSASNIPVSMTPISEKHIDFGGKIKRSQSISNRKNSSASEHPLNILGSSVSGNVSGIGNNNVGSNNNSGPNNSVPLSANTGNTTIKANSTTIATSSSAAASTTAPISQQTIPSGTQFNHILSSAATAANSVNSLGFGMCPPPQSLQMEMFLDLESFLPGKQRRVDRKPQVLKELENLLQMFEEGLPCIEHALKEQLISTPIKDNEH
Assay: far-Western, overlay or dot blot

B1: radiolabeled Cdc31p purified from bacteria (natural protein, S. cerevisiae, UniProt P06704 1-161, looked up)
chain: MSKNRSSLQSGPLNSELLEEQKQEIYEAFSLFDMNNDGFLDYHELKVAMKALGFELPKREILDLIDEYDSEGRHLMKYDDFYIVMGEKILKRDPLDEIKRAFQLFDDDHTGKISIKNLRRVAKELGETLTDEELRAMIEEFDLDGDGEINENEFIAICTDS
modifications: radiolabeled
binding result: binds
